# From US20160272693A1 (ZEALAND PHARMA A S, published 2016)
# *1 amine or outer side, *2 acyl side, *3 side chain or, on linkers, in order; H or OH if unused. Bridges are numbered along the chain shown (N, C = ends). [ ]: non-standard residue; d: D form. The star is where a group is joined. C20 diacid = O=C(O)CCCCCCCCCCCCCCCCCCC(=O)*; γGlu = O=C(O)[C@H](CCC(=O)[*:2])N[*:1]; Hyp = O=C(O)[C@@H]1C[C@@H](O)CN1; NMeI = CC[C@H](C)[C@H](NC)C(=O)O; Sar = CNCC(=O)O
# T1: human amylin receptor 3 (hAMYR3), hCTR2 co-expressed with human receptor activity modifying protein 3 (hRAMP3) (human, UniProt P30988 25-474; O60896 24-148)
# T1 sequence (looked up) 1: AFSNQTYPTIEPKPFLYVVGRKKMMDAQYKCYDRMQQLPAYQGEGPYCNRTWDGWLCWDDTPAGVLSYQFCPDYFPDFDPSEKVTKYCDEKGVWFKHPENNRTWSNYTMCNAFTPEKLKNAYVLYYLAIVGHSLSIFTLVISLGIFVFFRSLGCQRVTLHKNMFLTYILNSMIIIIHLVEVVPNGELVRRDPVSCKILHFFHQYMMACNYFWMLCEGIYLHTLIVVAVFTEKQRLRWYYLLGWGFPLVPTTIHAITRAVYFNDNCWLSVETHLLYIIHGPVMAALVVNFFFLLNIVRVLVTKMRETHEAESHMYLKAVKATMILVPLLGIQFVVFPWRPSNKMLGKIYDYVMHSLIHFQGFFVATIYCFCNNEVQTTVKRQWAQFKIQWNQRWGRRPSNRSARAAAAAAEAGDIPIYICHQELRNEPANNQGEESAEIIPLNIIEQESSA
# T1 sequence (looked up) 2: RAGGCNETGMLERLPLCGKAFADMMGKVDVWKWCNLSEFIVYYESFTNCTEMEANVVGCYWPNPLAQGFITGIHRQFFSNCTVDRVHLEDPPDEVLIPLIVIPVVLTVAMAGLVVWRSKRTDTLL
# B1: [19CD]-isoGlu-R-C( )-GTAT-C( )-ATERLAHFLKRSSF-Gly(Me)-A-Ile(Me)-LSSTEVGSNT-Hyp-NH2 (Compd. 19) (peptide)
# peptide: {C20 diacid}-[γGlu]RCGTATCATERLAHFLKRSSF[Sar]A[NMeI]LSSTEVGSNT[Hyp]-NH2
# modifications: disulfide 3-8
# SMILES: CC[C@H](C)[C@@H](C(=O)N[C@@H](CC(C)C)C(=O)N[C@@H](CO)C(=O)N[C@@H](CO)C(=O)N[C@H](C(=O)N[C@@H](CCC(=O)O)C(=O)N[C@H](C(=O)NCC(=O)N[C@@H](CO)C(=O)N[C@@H](CC(N)=O)C(=O)N[C@H](C(=O)N1C[C@H](O)C[C@H]1C(N)=O)[C@@H](C)O)C(C)C)[C@@H](C)O)N(C)C(=O)[C@H](C)NC(=O)CN(C)C(=O)[C@H](Cc1ccccc1)NC(=O)[C@H](CO)NC(=O)[C@H](CO)NC(=O)[C@H](CCCNC(=N)N)NC(=O)[C@H](CCCCN)NC(=O)[C@H](CC(C)C)NC(=O)[C@H](Cc1ccccc1)NC(=O)[C@H](Cc1c[nH]cn1)NC(=O)[C@H](C)NC(=O)[C@H](CC(C)C)NC(=O)[C@H](CCCNC(=N)N)NC(=O)[C@H](CCC(=O)O)NC(=O)[C@@H](NC(=O)[C@H](C)NC(=O)[C@@H]1CSSC[C@H](NC(=O)[C@H](CCCNC(=N)N)NC(=O)CC[C@H](NC(=O)CCCCCCCCCCCCCCCCCCC(=O)O)C(=O)O)C(=O)NCC(=O)N[C@@H]([C@@H](C)O)C(=O)N[C@@H](C)C(=O)N[C@@H]([C@@H](C)O)C(=O)N1)[C@@H](C)O
# B2: [19CD]-isoGlu-R-C( )-NTAT-C( )-ATQRLAHFLHRSVF-Gly(Me)-A-Ile(Me)-LSSTEVGSETP-NH2 (Compd. 20) (peptide)
# peptide: {C20 diacid-γGlu}-RCNTATCATQRLAHFLHRSVF[Sar]A[NMeI]LSSTEVGSETP-NH2
# modifications: disulfide 2-7
# SMILES: CC[C@H](C)[C@@H](C(=O)N[C@@H](CC(C)C)C(=O)N[C@@H](CO)C(=O)N[C@@H](CO)C(=O)N[C@H](C(=O)N[C@@H](CCC(=O)O)C(=O)N[C@H](C(=O)NCC(=O)N[C@@H](CO)C(=O)N[C@@H](CCC(=O)O)C(=O)N[C@H](C(=O)N1CCC[C@H]1C(N)=O)[C@@H](C)O)C(C)C)[C@@H](C)O)N(C)C(=O)[C@H](C)NC(=O)CN(C)C(=O)[C@H](Cc1ccccc1)NC(=O)[C@@H](NC(=O)[C@H](CO)NC(=O)[C@H](CCCNC(=N)N)NC(=O)[C@H](Cc1c[nH]cn1)NC(=O)[C@H](CC(C)C)NC(=O)[C@H](Cc1ccccc1)NC(=O)[C@H](Cc1c[nH]cn1)NC(=O)[C@H](C)NC(=O)[C@H](CC(C)C)NC(=O)[C@H](CCCNC(=N)N)NC(=O)[C@H](CCC(N)=O)NC(=O)[C@@H](NC(=O)[C@H](C)NC(=O)[C@@H]1CSSC[C@H](NC(=O)[C@H](CCCNC(=N)N)NC(=O)CC[C@H](NC(=O)CCCCCCCCCCCCCCCCCCC(=O)O)C(=O)O)C(=O)N[C@@H](CC(N)=O)C(=O)N[C@@H]([C@@H](C)O)C(=O)N[C@@H](C)C(=O)N[C@@H]([C@@H](C)O)C(=O)N1)[C@@H](C)O)C(C)C
# B3: [19CD]-isoGlu-R-C( )-PTAT-C( )-ATDRLAHFLVRSSF-Gly(Me)-A-Ile(Me)-LSSTDVGSDTP-NH2 (Compd. 23) (peptide)
# peptide: {C20 diacid}-[γGlu]RCPTATCATDRLAHFLVRSSF[Sar]A[NMeI]LSSTDVGSDTP-NH2
# modifications: disulfide 3-8
# SMILES: CC[C@H](C)[C@@H](C(=O)N[C@@H](CC(C)C)C(=O)N[C@@H](CO)C(=O)N[C@@H](CO)C(=O)N[C@H](C(=O)N[C@@H](CC(=O)O)C(=O)N[C@H](C(=O)NCC(=O)N[C@@H](CO)C(=O)N[C@@H](CC(=O)O)C(=O)N[C@H](C(=O)N1CCC[C@H]1C(N)=O)[C@@H](C)O)C(C)C)[C@@H](C)O)N(C)C(=O)[C@H](C)NC(=O)CN(C)C(=O)[C@H](Cc1ccccc1)NC(=O)[C@H](CO)NC(=O)[C@H](CO)NC(=O)[C@H](CCCNC(=N)N)NC(=O)[C@@H](NC(=O)[C@H](CC(C)C)NC(=O)[C@H](Cc1ccccc1)NC(=O)[C@H](Cc1c[nH]cn1)NC(=O)[C@H](C)NC(=O)[C@H](CC(C)C)NC(=O)[C@H](CCCNC(=N)N)NC(=O)[C@H](CC(=O)O)NC(=O)[C@@H](NC(=O)[C@H](C)NC(=O)[C@@H]1CSSC[C@H](NC(=O)[C@H](CCCNC(=N)N)NC(=O)CC[C@H](NC(=O)CCCCCCCCCCCCCCCCCCC(=O)O)C(=O)O)C(=O)N2CCC[C@H]2C(=O)N[C@@H]([C@@H](C)O)C(=O)N[C@@H](C)C(=O)N[C@@H]([C@@H](C)O)C(=O)N1)[C@@H](C)O)C(C)C
# B4: [19CD]-isoGlu-R-C( )-NTAT-C( )-ATQRLAHFLHRVSF-Gly(Me)-A-Ile(Me)-LSSTEVGSETP-NH2 (Compd. 21) (peptide)
# peptide: {C20 diacid-γGlu}-RCNTATCATQRLAHFLHRVSF[Sar]A[NMeI]LSSTEVGSETP-NH2
# modifications: disulfide 2-7
# SMILES: CC[C@H](C)[C@@H](C(=O)N[C@@H](CC(C)C)C(=O)N[C@@H](CO)C(=O)N[C@@H](CO)C(=O)N[C@H](C(=O)N[C@@H](CCC(=O)O)C(=O)N[C@H](C(=O)NCC(=O)N[C@@H](CO)C(=O)N[C@@H](CCC(=O)O)C(=O)N[C@H](C(=O)N1CCC[C@H]1C(N)=O)[C@@H](C)O)C(C)C)[C@@H](C)O)N(C)C(=O)[C@H](C)NC(=O)CN(C)C(=O)[C@H](Cc1ccccc1)NC(=O)[C@H](CO)NC(=O)[C@@H](NC(=O)[C@H](CCCNC(=N)N)NC(=O)[C@H](Cc1c[nH]cn1)NC(=O)[C@H](CC(C)C)NC(=O)[C@H](Cc1ccccc1)NC(=O)[C@H](Cc1c[nH]cn1)NC(=O)[C@H](C)NC(=O)[C@H](CC(C)C)NC(=O)[C@H](CCCNC(=N)N)NC(=O)[C@H](CCC(N)=O)NC(=O)[C@@H](NC(=O)[C@H](C)NC(=O)[C@@H]1CSSC[C@H](NC(=O)[C@H](CCCNC(=N)N)NC(=O)CC[C@H](NC(=O)CCCCCCCCCCCCCCCCCCC(=O)O)C(=O)O)C(=O)N[C@@H](CC(N)=O)C(=O)N[C@@H]([C@@H](C)O)C(=O)N[C@@H](C)C(=O)N[C@@H]([C@@H](C)O)C(=O)N1)[C@@H](C)O)C(C)C
# B5: [19CD]-isoGlu-R-C( )-GTAT-C( )-ATERLAHFLVRSSF-Gly(Me)-A-Ile(Me)-LSSTEVGSETP-NH2 (Compd. 22) (peptide)
# peptide: {C20 diacid}-[γGlu]RCGTATCATERLAHFLVRSSF[Sar]A[NMeI]LSSTEVGSETP-NH2
# modifications: disulfide 3-8
# SMILES: CC[C@H](C)[C@@H](C(=O)N[C@@H](CC(C)C)C(=O)N[C@@H](CO)C(=O)N[C@@H](CO)C(=O)N[C@H](C(=O)N[C@@H](CCC(=O)O)C(=O)N[C@H](C(=O)NCC(=O)N[C@@H](CO)C(=O)N[C@@H](CCC(=O)O)C(=O)N[C@H](C(=O)N1CCC[C@H]1C(N)=O)[C@@H](C)O)C(C)C)[C@@H](C)O)N(C)C(=O)[C@H](C)NC(=O)CN(C)C(=O)[C@H](Cc1ccccc1)NC(=O)[C@H](CO)NC(=O)[C@H](CO)NC(=O)[C@H](CCCNC(=N)N)NC(=O)[C@@H](NC(=O)[C@H](CC(C)C)NC(=O)[C@H](Cc1ccccc1)NC(=O)[C@H](Cc1c[nH]cn1)NC(=O)[C@H](C)NC(=O)[C@H](CC(C)C)NC(=O)[C@H](CCCNC(=N)N)NC(=O)[C@H](CCC(=O)O)NC(=O)[C@@H](NC(=O)[C@H](C)NC(=O)[C@@H]1CSSC[C@H](NC(=O)[C@H](CCCNC(=N)N)NC(=O)CC[C@H](NC(=O)CCCCCCCCCCCCCCCCCCC(=O)O)C(=O)O)C(=O)NCC(=O)N[C@@H]([C@@H](C)O)C(=O)N[C@@H](C)C(=O)N[C@@H]([C@@H](C)O)C(=O)N1)[C@@H](C)O)C(C)C
# B6: [19CD]-isoGlu-R-C( )-NTAT-C( )-ATQRLAHFLVRSSF-Gly(Me)-A-Ile(Me)-LSSTEVGSETP-NH2 (Compd. 24) (peptide)
# peptide: {C20 diacid}-[γGlu]RCNTATCATQRLAHFLVRSSF[Sar]A[NMeI]LSSTEVGSETP-NH2
# modifications: disulfide 3-8
# SMILES: CC[C@H](C)[C@@H](C(=O)N[C@@H](CC(C)C)C(=O)N[C@@H](CO)C(=O)N[C@@H](CO)C(=O)N[C@H](C(=O)N[C@@H](CCC(=O)O)C(=O)N[C@H](C(=O)NCC(=O)N[C@@H](CO)C(=O)N[C@@H](CCC(=O)O)C(=O)N[C@H](C(=O)N1CCC[C@H]1C(N)=O)[C@@H](C)O)C(C)C)[C@@H](C)O)N(C)C(=O)[C@H](C)NC(=O)CN(C)C(=O)[C@H](Cc1ccccc1)NC(=O)[C@H](CO)NC(=O)[C@H](CO)NC(=O)[C@H](CCCNC(=N)N)NC(=O)[C@@H](NC(=O)[C@H](CC(C)C)NC(=O)[C@H](Cc1ccccc1)NC(=O)[C@H](Cc1c[nH]cn1)NC(=O)[C@H](C)NC(=O)[C@H](CC(C)C)NC(=O)[C@H](CCCNC(=N)N)NC(=O)[C@H](CCC(N)=O)NC(=O)[C@@H](NC(=O)[C@H](C)NC(=O)[C@@H]1CSSC[C@H](NC(=O)[C@H](CCCNC(=N)N)NC(=O)CC[C@H](NC(=O)CCCCCCCCCCCCCCCCCCC(=O)O)C(=O)O)C(=O)N[C@@H](CC(N)=O)C(=O)N[C@@H]([C@@H](C)O)C(=O)N[C@@H](C)C(=O)N[C@@H]([C@@H](C)O)C(=O)N1)[C@@H](C)O)C(C)C
# Biological target: T1, human amylin receptor 3 (hAMYR3), hCTR2 …
# Test: cell-based or functional assay
row,hAMYR3 EC50 (nM); cAMP induction [nM],Binder
1,0.28,B1
2,0.33,B2
3,0.13,B3
4,0.23,B4
5,0.59,B5
6,0.12,{C20 diacid-γGlu}-RCNTATCATQRLAHFLHRSSF[Sar]A[NMeI]LSSTEVGSETP-NH2 (disulfide 2-7) [[19CD]-isoGlu-R-C( )-NTAT-C( )-ATQRLAHFLHRSSF-Gly(Me)-A-Ile(Me)-LSSTEVGSETP-NH2 (Compd. 2)]
7,0.19,B6
